Biological target: T1, human non-muscular myosin heavy chain type A (human, UniProt P35579 2-1960)
T1 construct: also called nmMHCA; human non-muscular myosin A chain
Assay: flow cytometry, FITC-labeled antibody at 20 ug/ml on intact MKN45 cells, mean channel number of FL1
Description: Cultured cells of MKN45 or cells of a solid tumor (hereinafter referred to as “tumor cells”) formed by subcutaneous transplantation of MKN45 were allowed to react with the GAH antibody described in EP-A-520499 and EP-A-1174126, which had been labeled with fluorescein isothiocyanate (FITC: Sigma), in a concentration of 20 μg/ml at 4° C. for 1 hour, and then washed once with phosphate buffered saline (PBS). Analysis was carried out in PBS containing propidium iodide (PI: Sigma) using a flow cytometer (FACScan: Becton Dickinson). PI-positive cells, namely dead cells, were excluded from the subject of analysis by gating operation. By calculating the mean channel number of FL1 as an index of FITC fluorescence intensity, comparison of the cultured cells and tumor cells of MKN45 was carried out.

T1 sequence (P35579 2-1960 limits assumed): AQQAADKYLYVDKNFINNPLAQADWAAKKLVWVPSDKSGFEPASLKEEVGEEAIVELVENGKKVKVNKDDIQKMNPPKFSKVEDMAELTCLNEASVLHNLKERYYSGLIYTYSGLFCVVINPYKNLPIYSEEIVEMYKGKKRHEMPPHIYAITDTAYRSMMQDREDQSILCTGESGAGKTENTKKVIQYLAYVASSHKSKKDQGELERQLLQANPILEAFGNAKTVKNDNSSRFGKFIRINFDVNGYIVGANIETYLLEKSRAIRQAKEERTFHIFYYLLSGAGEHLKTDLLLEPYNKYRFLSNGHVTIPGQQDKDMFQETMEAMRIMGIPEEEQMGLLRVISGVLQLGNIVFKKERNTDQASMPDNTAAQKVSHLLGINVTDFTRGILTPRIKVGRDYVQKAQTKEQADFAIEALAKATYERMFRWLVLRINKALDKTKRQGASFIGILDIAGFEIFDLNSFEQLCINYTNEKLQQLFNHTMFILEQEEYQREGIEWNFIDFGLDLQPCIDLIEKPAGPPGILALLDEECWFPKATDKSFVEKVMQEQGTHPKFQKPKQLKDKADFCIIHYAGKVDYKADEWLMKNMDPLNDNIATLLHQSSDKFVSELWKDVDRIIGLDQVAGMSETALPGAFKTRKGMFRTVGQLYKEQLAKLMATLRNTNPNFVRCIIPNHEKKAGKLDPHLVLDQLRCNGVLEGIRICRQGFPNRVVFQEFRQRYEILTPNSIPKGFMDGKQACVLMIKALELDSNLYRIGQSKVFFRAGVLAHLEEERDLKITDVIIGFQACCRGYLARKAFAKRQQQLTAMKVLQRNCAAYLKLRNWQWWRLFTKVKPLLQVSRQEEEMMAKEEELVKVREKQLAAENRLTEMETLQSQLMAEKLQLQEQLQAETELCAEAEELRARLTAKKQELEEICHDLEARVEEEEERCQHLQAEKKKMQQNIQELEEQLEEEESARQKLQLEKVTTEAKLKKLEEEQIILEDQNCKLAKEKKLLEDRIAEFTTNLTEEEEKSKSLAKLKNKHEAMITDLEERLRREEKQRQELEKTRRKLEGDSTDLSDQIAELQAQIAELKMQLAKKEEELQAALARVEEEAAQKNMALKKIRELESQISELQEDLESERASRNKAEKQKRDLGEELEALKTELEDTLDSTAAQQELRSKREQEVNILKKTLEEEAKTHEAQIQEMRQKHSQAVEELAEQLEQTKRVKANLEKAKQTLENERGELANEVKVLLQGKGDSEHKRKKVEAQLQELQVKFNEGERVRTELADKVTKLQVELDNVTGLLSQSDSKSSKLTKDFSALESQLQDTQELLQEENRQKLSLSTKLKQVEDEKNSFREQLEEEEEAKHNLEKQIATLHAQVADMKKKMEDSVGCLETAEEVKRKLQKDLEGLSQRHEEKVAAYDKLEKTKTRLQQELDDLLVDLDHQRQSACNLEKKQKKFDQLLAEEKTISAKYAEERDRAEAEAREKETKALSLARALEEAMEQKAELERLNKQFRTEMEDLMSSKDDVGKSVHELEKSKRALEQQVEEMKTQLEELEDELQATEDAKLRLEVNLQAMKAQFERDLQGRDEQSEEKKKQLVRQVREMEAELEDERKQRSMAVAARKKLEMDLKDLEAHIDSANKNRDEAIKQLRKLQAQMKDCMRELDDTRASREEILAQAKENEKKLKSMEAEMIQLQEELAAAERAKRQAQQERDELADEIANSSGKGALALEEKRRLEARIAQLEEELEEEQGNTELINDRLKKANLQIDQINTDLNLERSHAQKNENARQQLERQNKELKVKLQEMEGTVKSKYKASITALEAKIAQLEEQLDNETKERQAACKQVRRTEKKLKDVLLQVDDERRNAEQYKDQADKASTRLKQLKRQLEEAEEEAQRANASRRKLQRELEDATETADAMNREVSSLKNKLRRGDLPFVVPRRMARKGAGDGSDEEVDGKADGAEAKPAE

B1: GAH antibody (human monoclonal antibody disclosed in EP-A-520499) (antibody, V domains shown)
VH: QVQLQESGPGLVKPSQTLSLTCTVSGGSISSCGFYWNWIRQHPGKGLEWIGYIYYSGSTYYNPSLKSRVTISLDTSKSQFSLKLSSLTAADTAVYYCARSTRLRGADYWGQGTMVTVSS
VL: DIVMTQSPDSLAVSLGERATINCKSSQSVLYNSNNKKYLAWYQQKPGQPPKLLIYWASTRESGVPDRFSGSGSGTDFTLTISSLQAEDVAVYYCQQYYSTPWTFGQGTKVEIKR
For B1, the “fold reactivity, tumor cells against cultured cells of MKN45” value was ~18 times.
